Source: paper PMC9319256, “Human Enzyme PADI4 Binds to the Nuclear Carrier Importin α3” (Cells, 2022)

Tests used:
[1] = target: T1, Impα3 (Homo sapiens, UniProt O00629); test: Fluorescence titration of PADI4 with Impα3; type: binding; conditions: fluorescence at 330 nm; 3 µM PADI4, 0–25 µM importin; 20 mM Tris pH 7.5, 5 mM TCEP, 150 mM NaCl, 5% glycerol, 25 °C; titration repeated three times; ± fitting error
T1 construct: made in house
T1 sequence (O00629 1-521): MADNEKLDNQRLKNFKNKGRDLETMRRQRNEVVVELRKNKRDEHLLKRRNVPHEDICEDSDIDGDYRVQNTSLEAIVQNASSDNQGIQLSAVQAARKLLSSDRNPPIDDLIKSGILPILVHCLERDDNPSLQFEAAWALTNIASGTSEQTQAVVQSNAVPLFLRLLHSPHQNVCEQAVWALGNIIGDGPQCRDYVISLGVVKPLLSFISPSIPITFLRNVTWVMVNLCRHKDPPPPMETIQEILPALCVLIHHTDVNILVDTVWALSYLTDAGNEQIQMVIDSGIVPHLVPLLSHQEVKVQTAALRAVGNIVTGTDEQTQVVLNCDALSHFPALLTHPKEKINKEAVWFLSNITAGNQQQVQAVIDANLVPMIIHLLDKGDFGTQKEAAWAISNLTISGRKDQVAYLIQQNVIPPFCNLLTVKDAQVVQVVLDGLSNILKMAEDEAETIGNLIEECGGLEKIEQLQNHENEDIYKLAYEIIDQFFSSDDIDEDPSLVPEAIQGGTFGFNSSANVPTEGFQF
Protocol: (§1) For the titration between either Impα3 or ΔImpα3 and intact PADI4, increasing amounts of the corresponding importin species, in the concentration range 0–25 µM, were added to a solution with a fixed concentration of intact PADI4 (3 µM). Experiments were carried out in 20 mM Tris buffer (pH 7.5), 5 mM TCEP, 150 mM NaCl, and 5% glycerol at 25 °C (the storage buffer of PADI4). The experimental setup was the same as in the steady-state fluorescence experiments. Blank corrections containing the amount of each importin species were subtracted. Inner-filter effects were corrected. Each titration (Impα3 with PADI4 or ΔImpα3 with PADI4) was repeated three times, using new samples. In the three cases, the variations in the results were lower than 10%.
(§2) Handling and preparation of samples were the same described in Section 2.4.1. The dissociation constant of the corresponding complex, Kd, was calculated by fitting the binding isotherm to the general binding model, explicitly considering ligand depletion. […] Fitting to Equation (1) was carried out using KaleidaGraph (Synergy software, Reading, PA, USA).

[2] = tested on: ΔImpα3; test: Isothermal titration calorimetry (ITC), ΔImpα3; type: binding, human
Protocol: (§3) Calorimetric titrations for testing the interaction of PADI4, as well as for the interaction of NLS1/2-PADI4 peptides, with both importins, Impα3 and ΔImpα3, were carried out in an Auto-iTC200 automated high-sensitivity calorimeter (MicroCal, Malvern-Panalytical, Malvern, UK). Experiments were performed in 20 mM Tris buffer (pH 7.5), 5 mM TCEP, 150 mM NaCl, and 5% glycerol at 25 °C. PADI4 or the peptide solution (100 μM) in the injection syringe was titrated into the importin solution (10 μM) in the calorimetric cell. The remaining experimental and processing details have been described previously. Due to the presence of glycerol in solution, background injection (included as an adjustable parameter in data fitting) was rather large. The data analysis was conducted in Origin 7.0 (OriginLab, Northampton, MA, USA) with user-defined fitting functions.

[3] = target: T1, Impα3; test: Isothermal titration calorimetry (ITC), Impα3; type: binding
Protocol: as §3

[4] = target: T1, Impα3; test: Steady-state fluorescence, complex versus addition spectrum, Impα3; type: binding; conditions: 20 µM PADI4 or peptide, 2 µM Impα3; 50 mM sodium phosphate pH 7.0, 25 °C; excitation 280 or 295 nm; triplicates
Protocol: Spectra were collected on a Cary Varian spectrofluorometer (Agilent, Santa Clara, CA, USA), interfaced with a Peltier unit. Following the standard protocols used in our laboratories, the samples were prepared the day before and left overnight at 5 °C; before experiments, samples were left for 1 h at 25 °C, where experiments were acquired. A 1 cm pathlength quartz cell (Hellma, Kruibeke, Belgium) was used. The concentration of PADI4 or NLS1/2-PADI4 peptides was 20 µM, and that of each importin species was 2 µM. Samples containing the corresponding isolated peptides, the isolated PADI4, the isolated corresponding importin species, and the corresponding mixtures (at the concentrations indicated above) were prepared. Experiments were performed with samples in 50 mM sodium phosphate buffer, pH 7.0. Fluorescence experiments were repeated in triplicates with newly prepared samples. Variations of results among the experiments were lower than 5%.
Polypeptide samples were excited either at 280 or 295 nm (although NLS2-PADI4 has only a single […]). The other experimental parameters used in the experiments have been described elsewhere. Appropriate blank corrections were made in all spectra.

[5] = target: T1, Impα3; test: Far-UV CD, complex versus addition spectrum, Impα3; type: binding; conditions: 25 °C; average of six scans
Description: Far-UV CD spectra were collected on a Jasco J810 spectropolarimeter (Jasco, Tokyo, Japan) interfaced with a Peltier unit. The instrument was periodically calibrated with (+)-10-camphorsulfonic acid. A cell of path length 0.1 cm was used (Hellma, Kruibeke, Belgium). All spectra were corrected by subtracting the corresponding baseline. Concentration of each polypeptide (importin species and either NLS1/2-PADI4 or PADI4) and the buffers were the same used in the fluorescence experiments (Section 2.4).
Isothermal wavelength spectra of each isolated macromolecule and that of the complex were acquired as an average of six scans, at a scan speed of 50 nm/min, with a response time of 2 s and a bandwidth of 1 nm. Handling and preparation of samples were the same described in Section 2.4.1.

[6] = target: ΔImpα3; test: Fluorescence titration of PADI4 with ΔImpα3; type: binding, human; conditions: fluorescence at 330 nm; 3 µM PADI4, 0–25 µM importin; 20 mM Tris pH 7.5, 5 mM TCEP, 150 mM NaCl, 5% glycerol, 25 °C; titration repeated three times; ± fitting error
Protocol: as §1, §2

[7] = Impα3, pH 7.5, 25 °C, 95% confidence interval in parentheses

## PADI4: human peptidyl-arginine deiminase 4, intact protein, purified as previously described
[1]
  Kd: 3.9 ± 0.8 µM
[2]; PADI4 or peptide (100 μM) titrated into ΔImpα3 (10 μM), 20 mM Tris pH 7.5, 5 mM TCEP, 150 mM NaCl, 5% glycerol, 25 °C, 95% confidence interval in parentheses
  Ka (association constant): 7.8 (7.3, 8.5) 10^5 M^−1
[2]; PADI4 or peptide (100 μM) titrated into ΔImpα3 (10 μM), 20 mM Tris pH 7.5, 5 mM TCEP, 150 mM NaCl, 5% glycerol, 25 °C, 95% confidence interval in parentheses, read-out: Kd (dissociation constant)
  Kd: 1.3 µM
[2]; ΔImpα3, pH 7.5, 25 °C
  -TΔS: -30.4 kcal/mol
  ΔG: -8.0 kcal/mol
[3]; Impα3, pH 7.5, 25 °C
  ΔG: -7.3 kcal/mol
[3]; [7]
  n (binding stoichiometry or percentage of binding-competent protein): 0.97 (0.94, 1.00)
  ΔH (binding enthalpy): −65.5 (−72.0, −60.5) kcal/mol
[3]; PADI4 or peptide (100 μM) titrated into Impα3 (10 μM), 20 mM Tris pH 7.5, 5 mM TCEP, 150 mM NaCl, 5% glycerol, 25 °C, 95% confidence interval in parentheses
  Ka (association constant): 2.1 (1.7, 2.5) 10^5 M^−1
[3]; PADI4 or peptide (100 μM) titrated into Impα3 (10 μM), 20 mM Tris pH 7.5, 5 mM TCEP, 150 mM NaCl, 5% glycerol, 25 °C, 95% confidence interval in parentheses, read-out: Kd (dissociation constant)
  Kd: 4.8 µM
[4]
  change in fluorescence spectrum of complex versus addition spectrum: a variation in the fluorescence intensity
[5]
  change in far-UV CD spectrum of complex versus addition spectrum: the addition spectrum was not very different from that of the complex
[6]
  Kd: 6 ± 1 µM
